The nature of this series: label from the status in PepcDB records.

The source of these data is a protein production outcome set (Wang et al. 2014).

On to “AAKQDVKVFSEDGTSKVVEILADMTARDLCQLLVYKSHCVDDNSWTLVEHHPHLGLERCLEDHELVVQVESTMASESKFLFRKNYAKYEFFK”, for which the protein production entry is listed as “failed”.
In the case of “AALAAKVRTLGPSMTRSMQRVAEAVAGDPAGCAALTVTGLAELTGTSEATVVRTARLLGYPGYRDLRLALAGLAAQQQSGRAPAITTDIAVDDPIADVVAKLAYDEQQTL”, the protein production result is “failed”.
Regarding “AAPPAPAAKPGSPKKRGKTEVNESLLTPRFYTTDFDEMEQLFNAEINKQLNQDEFDALLQEFKTDYNQTHFIRNPEFKEAADKMQGPLRQIFVEFLERSCTAEFSGFLLYKELGRRLKKTNPVVAEIFSLMSRDEARHAGFLNKGLSDFNLALDLGFLTKARKYTFFKPKFIFYATYLSEKIGYWRYITIFRHLKANPEYQVYPIFKYFENWCQDENRHGDFFSALLKAQPQFLNDWKAKLWSRFFCLSVYITMYLNDCQRSAFYEGIGLNTKEFDMHVIYETNRTTARIFPAVPDVENPEFKRKLDRMVDINLKIISIGESNDLPLVKNLKRVPLIAQLVSEIIAAYLMPPIESGSVDFAEFEPKLVY”, the protein production result was “failed”.
With “AAQEKVVKLKIVQTSDVHGNYYPYNFITRKDWQGSLARIYAFVEKEREQYKENLILLDNGDILQGQPTAYYYNYIDTVSPHLCAEMMNYMKYDAGNMGNHDVETGRAVFDRWINTCDFPVLGANIIDISTGEPHLPPYKVMERDGVKIVILGMITPAIPAWLSENLWKGLRFDDMEETARKWMKIIREKENPDLMIGLFHAGQEAFKMSGKYNENASLSVAKNVPGFDIVLMGHDHARECKKVMNVAGDSVLVIDPASNGIVLSNIDVTLKLKDGKVRSKDIKGVLTETKDYGISEDFMKNFAPQYDTVRNFVSK”, the protein production entry is “failed”.
The entry for “AAQGFVFNLDNPIFKDRRVREALSLLWDFDWINRRVMRNFYVREQSYFPKSDMAATELPTPAELKILEPLRGQVPDEVFTTVYQPPKTDGSGYIRDKQLQALKLLAEAGWHPKNNKLVNAAGEPMVFSFLDGQGGFDRLILPFKRTLAQIGITLDFLRIDSAQYINRLNARDYDMIVVSLPKNGNPIISPGRELYNLYGSQSATEVGSSNAMVLRNPAVDTLIDGLVSANTRNDMVLYARALDRVLQWGYYMIPNYYSK” is “failed”; for “ADIVNLQGVTGGNTYSVPAVTMDLLSGKDVAVEEFPRKLLTFKEKLGEGQFGEVHLCEVEGMEKFKDKDFALDVSANQPVLVAVKMLRADANKNARNDFLKEIKIMSRLKDPNIIHLLAVCITDDPLCMITEYMENGDLNQFLSRHEPPNSSSSDVRTVSYTNLKFMATQIASGMKYLSSLNFVHRDLATRNCLVGKNYTIKIADFGMSRNLYSGDYYRIQGRAVLPIRWMSWESILLGKFTTASDVWAFGVTLWETFTFCQEQPYSQLSDEQVIENTGEFFRDQGRQTYLPQPAICPDSVYKLMLSCWRRDTKNRPSFQEIHLLLLQQGDE” it is “failed”.
The entry for “AELQQTEKASAKKQDKAEIRNVIVMIGDGMGTPYIRAYRSMKNNGDTPNNPKLTEFDRNLTGMMMTHPDDPDYNITDSAAAGTALATGVKTYNNAIGVDKNGKKVKSVLEEAKQQGKSTGLVATSEINHATPAAYGAHNESRKNMDQIANSYMDDKIKGKHKIDVLLGGGKSYFNRKNRNLTKEFKQAGYSYVTTKQALKKNKDQQVLGLFADGGLAKALDRDSKTPSLKDMTVSAIDRLNQNKKGFFLMVEGSQIDWAAHDNDTVGAMSEVKDFEQAYKAAIEFAKKDKHTLVIATADHTTGGFTIGANGEKNWHAEPILSAKKTPEFMAKKISEGKPVKDVLARYANLKVTSEEIKSVEAAAQADKSKGASKAIIKIFNTRSNSGWTSTDHTGEEVPVYAYGPGKEKFRGLINNTDQANIIFKILKTGK” is “failed”; for “AEVDQATKPAEAKYYIAGTITDATTGQELTTAKVTLGDKSVTSSFNEQVNYKAEGYALVVSADGYYPVKRQVYLNQVSDGQTSVATVNVALVSVEAAVIPPVVPPTDPETDINEGEATKVADKAVEVAKPSESTVTDMLAGTTATPEEKKALDETLEMAGGMKVGETTPEVLADGSILAITPVKFTNPIQDAPAMVPYFYNEGCELTGDVKEVAAPVTRADGAVAADIQKAFLSNAAKALNMNAGFVQKIGYTRISVLNGYSILGYTIKGQLVSKKLTFLISGKYYEGIVSYQKSVMIYPNYYSHDSHDSHDSHGFNPNAGGGSND” it is “not failed”.
To “AFLNKHFAKKNHNISVDELSHALELTDKAELTEENNILEGIIRFGGETAKEVMTSRLDVVDLDIRTPFKDVIQCIIDNAYSRIPIYSGTRDNIKGVLYIKDLLPHLNKGDNFRWQSLIRPAYFVPETKMIDDLLRDFQANKIHIAIVVDEFGGTSGIVTMEDIIEEIVGEIHDEYDD” belongs “not failed”.
